Target: Tissue factor (TF), P13726
Assay: cell-based or functional assay

Chain of Tissue factor (TF), P13726 (P13726 33-295): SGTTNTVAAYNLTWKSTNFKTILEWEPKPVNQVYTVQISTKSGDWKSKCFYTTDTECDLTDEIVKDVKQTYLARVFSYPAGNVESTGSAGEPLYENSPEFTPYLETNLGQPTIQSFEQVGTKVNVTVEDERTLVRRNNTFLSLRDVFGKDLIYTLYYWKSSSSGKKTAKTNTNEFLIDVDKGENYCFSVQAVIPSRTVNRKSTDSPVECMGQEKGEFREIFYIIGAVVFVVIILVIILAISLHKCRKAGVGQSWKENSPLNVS

ETP (TG; MOD-5014 1.25 ug/ml + TF 0.5 pM; run 1): 264 | ETP (TG; MOD-5014 1.25 ug/ml + TF 1 pM; run 1): 484 | ETP (TG; MOD-5014 1.25 ug/ml + TF 2.5 pM; run 1): 1120 | ETP (TG; MOD-5014 1.25 ug/ml + TF 5 pM; run 1): 1600 | ETP (TG; MOD-5014 2.5 ug/ml + TF 0.5 pM; run 1): 245 | ETP (TG; MOD-5014 2.5 ug/ml + TF 0.5 pM; run 2): 317 | ETP (TG; MOD-5014 2.5 ug/ml + TF 1 pM; run 1): 448 | ETP (TG; MOD-5014 2.5 ug/ml + TF 1 pM; run 2): 760 | ETP (TG; MOD-5014 2.5 ug/ml + TF 2.5 pM; run 1): 1030 | ETP (TG; MOD-5014 2.5 ug/ml + TF 2.5 pM; run 2): 1110 | ETP (TG; MOD-5014 2.5 ug/ml + TF 5 pM; run 1): 1550 | ETP (TG; MOD-5014 2.5 ug/ml + TF 5 pM; run 2): 1600 | ETP (TG; MOD-5014 5 ug/ml + TF 0.5 pM; run 1): 344 | ETP (TG; MOD-5014 5 ug/ml + TF 1 pM; run 1): 490 | ETP (TG; MOD-5014 5 ug/ml + TF 2.5 pM; run 1): 982 | ETP (TG; MOD-5014 5 ug/ml + TF 5 pM; run 1): 1510 | ETP (TG; MOD-5014 10 ug/ml + TF 0.5 pM; run 2): 460 | ETP (TG; MOD-5014 10 ug/ml + TF 1 pM; run 2): 754 | ETP (TG; MOD-5014 10 ug/ml + TF 2.5 pM; run 2): 1060 | ETP (TG; MOD-5014 10 ug/ml + TF 5 pM; run 2): 1600 | ETP; thrombin generation in severe hemophilia A pooled plasma, MOD-5014 5 ug/kg (FIG. 83), TF 0.5 pM, run #2: 354 | ETP; thrombin generation in severe hemophilia A pooled plasma, MOD-5014 5 ug/kg (FIG. 83), TF 1 pM, run #2: 754 | ETP; thrombin generation in severe hemophilia A pooled plasma, MOD-5014 5 ug/kg (FIG. 83), TF 2.5 pM, run #2: 1010 | ETP; thrombin generation in severe hemophilia A pooled plasma, MOD-5014 5 ug/kg (FIG. 83), TF 5 pM, run #2: 1530 | Lag time (TG; MOD-5014 1.25 ug/ml + TF 0.5 pM; run 1): 4.67 min | Lag time (TG; MOD-5014 1.25 ug/ml + TF 1 pM; run 1): 2.67 min | Lag time (TG; MOD-5014 1.25 ug/ml + TF 2.5 pM; run 1): 2.33 min | Lag time (TG; MOD-5014 1.25 ug/ml + TF 5 pM; run 1): 1.33 min | Lag time (TG; MOD-5014 2.5 ug/ml + TF 0.5 pM; run 1): 6.67 min | Lag time (TG; MOD-5014 2.5 ug/ml + TF 1 pM; run 1): 3 min | Lag time (TG; MOD-5014 2.5 ug/ml + TF 1 pM; run 2): 3.33 min | Lag time (TG; MOD-5014 2.5 ug/ml + TF 2.5 pM; run 1): 2.63 min | Lag time (TG; MOD-5014 2.5 ug/ml + TF 2.5 pM; run 2): 2.67 min | Lag time (TG; MOD-5014 2.5 ug/ml + TF 5 pM; run 1): 3.67 min | Lag time (TG; MOD-5014 2.5 ug/ml + TF 5 pM; run 2): 1.67 min | Lag time (TG; MOD-5014 5 ug/ml + TF 0.5 pM; run 1): 5.67 min | Lag time (TG; MOD-5014 5 ug/ml + TF 1 pM; run 1): 3 min | Lag time (TG; MOD-5014 5 ug/ml + TF 2.5 pM; run 1): 3 min | Lag time (TG; MOD-5014 5 ug/ml + TF 5 pM; run 1): 1.67 min | Lag time (TG; MOD-5014 10 ug/ml + TF 0.5 pM; run 2): 8.67 min | Lag time (TG; MOD-5014 10 ug/ml + TF 2.5 pM; run 2): 3 min | Lag time (TG; MOD-5014 10 ug/ml + TF 5 pM; run 2): 1.67 min | Lag time; thrombin generation in severe hemophilia A pooled plasma, MOD-5014 5 ug/kg (FIG. 83), TF 0.5 pM, run #2: 7 | Lag time; thrombin generation in severe hemophilia A pooled plasma, MOD-5014 5 ug/kg (FIG. 83), TF 1 pM, run #2: 3.67 | Lag time; thrombin generation in severe hemophilia A pooled plasma, MOD-5014 5 ug/kg (FIG. 83), TF 2.5 pM, run #2: 2.67 | Lag time; thrombin generation in severe hemophilia A pooled plasma, MOD-5014 5 ug/kg (FIG. 83), TF 5 pM, run #2: 2 | Peak (TG; MOD-5014 1.25 ug/ml + TF 0.5 pM; run 1): 9.04 | Peak (TG; MOD-5014 1.25 ug/ml + TF 1 pM; run 1): 27.4 | Peak (TG; MOD-5014 1.25 ug/ml + TF 2.5 pM; run 1): 99.1 | Peak (TG; MOD-5014 1.25 ug/ml + TF 5 pM; run 1): 231 | Peak (TG; MOD-5014 2.5 ug/ml + TF 0.5 pM; run 1): 10.3 | Peak (TG; MOD-5014 2.5 ug/ml + TF 0.5 pM; run 2): 11.2 | Peak (TG; MOD-5014 2.5 ug/ml + TF 1 pM; run 1): 22.6 | Peak (TG; MOD-5014 2.5 ug/ml + TF 1 pM; run 2): 30.4 | Peak (TG; MOD-5014 2.5 ug/ml + TF 2.5 pM; run 1): 93.2 | Peak (TG; MOD-5014 2.5 ug/ml + TF 2.5 pM; run 2): 105 | Peak (TG; MOD-5014 2.5 ug/ml + TF 5 pM; run 1): 241 | Peak (TG; MOD-5014 2.5 ug/ml + TF 5 pM; run 2): 245 | Peak (TG; MOD-5014 5 ug/ml + TF 0.5 pM; run 1): 13.2 | Peak (TG; MOD-5014 5 ug/ml + TF 1 pM; run 1): 28.3 | Peak (TG; MOD-5014 5 ug/ml + TF 2.5 pM; run 1): 94.2 | Peak (TG; MOD-5014 5 ug/ml + TF 5 pM; run 1): 261 | Peak (TG; MOD-5014 10 ug/ml + TF 1 pM; run 2): 32.2 | Peak (TG; MOD-5014 10 ug/ml + TF 2.5 pM; run 2): 92.2 | Peak (TG; MOD-5014 10 ug/ml + TF 5 pM; run 2): 236 | Peak; thrombin generation in severe hemophilia A pooled plasma, MOD-5014 5 ug/kg (FIG. 83), TF 0.5 pM, run #2: 14.3 | Peak; thrombin generation in severe hemophilia A pooled plasma, MOD-5014 5 ug/kg (FIG. 83), TF 1 pM, run #2: 28.6 | Peak; thrombin generation in severe hemophilia A pooled plasma, MOD-5014 5 ug/kg (FIG. 83), TF 2.5 pM, run #2: 104 | Peak; thrombin generation in severe hemophilia A pooled plasma, MOD-5014 5 ug/kg (FIG. 83), TF 5 pM, run #2: 254 | StartTail (TG; MOD-5014 1.25 ug/ml + TF 0.5 pM; run 1): 75 | StartTail (TG; MOD-5014 1.25 ug/ml + TF 1 pM; run 1): 40 | StartTail (TG; MOD-5014 1.25 ug/ml + TF 2.5 pM; run 1): 33 | StartTail (TG; MOD-5014 1.25 ug/ml + TF 5 pM; run 1): 25 | StartTail (TG; MOD-5014 2.5 ug/ml + TF 0.5 pM; run 1): 64 | StartTail (TG; MOD-5014 2.5 ug/ml + TF 0.5 pM; run 2): 75 | StartTail (TG; MOD-5014 2.5 ug/ml + TF 1 pM; run 1): 56 | StartTail (TG; MOD-5014 2.5 ug/ml + TF 2.5 pM; run 1): 34 | StartTail (TG; MOD-5014 2.5 ug/ml + TF 2.5 pM; run 2): 31 | StartTail (TG; MOD-5014 2.5 ug/ml + TF 5 pM; run 1): 23 | StartTail (TG; MOD-5014 2.5 ug/ml + TF 5 pM; run 2): 24 | StartTail (TG; MOD-5014 5 ug/ml + TF 0.5 pM; run 1): 75 | StartTail (TG; MOD-5014 5 ug/ml + TF 1 pM; run 1): 50 | StartTail (TG; MOD-5014 5 ug/ml + TF 2.5 pM; run 1): 38 | StartTail (TG; MOD-5014 10 ug/ml + TF 0.5 pM; run 2): 72 | StartTail (TG; MOD-5014 10 ug/ml + TF 2.5 pM; run 2): 34 | StartTail (TG; MOD-5014 10 ug/ml + TF 5 pM; run 2): 25 | StartTail; thrombin generation in severe hemophilia A pooled plasma, MOD-5014 5 ug/kg (FIG. 83), TF 1 pM, run #2: 69 | StartTail; thrombin generation in severe hemophilia A pooled plasma, MOD-5014 5 ug/kg (FIG. 83), TF 2.5 pM, run #2: 30 | StartTail; thrombin generation in severe hemophilia A pooled plasma, MOD-5014 5 ug/kg (FIG. 83), TF 5 pM, run #2: 23 | tt Peak (TG; MOD-5014 1.25 ug/ml + TF 0.5 pM; run 1): 22.3 | tt Peak (TG; MOD-5014 1.25 ug/ml + TF 1 pM; run 1): 10.3 | tt Peak (TG; MOD-5014 1.25 ug/ml + TF 2.5 pM; run 1): 8 | tt Peak (TG; MOD-5014 1.25 ug/ml + TF 5 pM; run 1): 4.67 | tt Peak (TG; MOD-5014 2.5 ug/ml + TF 0.5 pM; run 1): 22 | tt Peak (TG; MOD-5014 2.5 ug/ml + TF 2.5 pM; run 1): 8.35 | tt Peak (TG; MOD-5014 2.5 ug/ml + TF 2.5 pM; run 2): 8.33 | tt Peak (TG; MOD-5014 2.5 ug/ml + TF 5 pM; run 2): 4.67 | tt Peak (TG; MOD-5014 5 ug/ml + TF 0.5 pM; run 1): 21.3 | tt Peak (TG; MOD-5014 5 ug/ml + TF 1 pM; run 1): 10.7 | tt Peak (TG; MOD-5014 5 ug/ml + TF 2.5 pM; run 1): 8.33 | tt Peak (TG; MOD-5014 5 ug/ml + TF 5 pM; run 1): 4.67 | tt Peak (TG; MOD-5014 10 ug/ml + TF 1 pM; run 2): 33.7 | tt Peak (TG; MOD-5014 10 ug/ml + TF 2.5 pM; run 2): 8.67 | tt Peak; thrombin generation in severe hemophilia A pooled plasma, MOD-5014 5 ug/kg (FIG. 83), TF 0.5 pM, run #2: 21.3 | tt Peak; thrombin generation in severe hemophilia A pooled plasma, MOD-5014 5 ug/kg (FIG. 83), TF 1 pM, run #2: 12.3 | tt Peak; thrombin generation in severe hemophilia A pooled plasma, MOD-5014 5 ug/kg (FIG. 83), TF 2.5 pM, run #2: 7.67 | tt Peak; thrombin generation in severe hemophilia A pooled plasma, MOD-5014 5 ug/kg (FIG. 83), TF 5 pM, run #2: 4.67
B1: MOD-5014 (FVIIa-CTP3; activated Factor VII-CTP-CTP-CTP), P08709 61-212 (enzyme)
chain 1: ANAFLEELRPGSLERECKEEQCSFEEAREIFKDAERTKLFWISYSDGDQCASSPCQNGGSCKDQLQSYICFCLPAFEGRNCETHKDDQLICVNENGGCEQYCSDHTGTKRSCRCHEGYSLLADGVSCTPTVEYPCGKIPILEKRNASKPQGR
chain 2: IVGGKVCPKGECPWQVLLLVNGAQLCGGTLINTIWVVSAAHCFDKIKNWRNLIAVLGEHDLSEHDGDEQSRRVAQVIIPSTYVPGTTNHDIALLRLHQPVVLTDHVVPLCLPERTFSERTLAFVRFSLVSGWGQLLDRGATALELMVLNVPRLMTQDCLQQSRKVGDSPNITEYMFCAGYSDGSKDSCKGDSGGPHATHYRGTWYLTGIVSWGQGCATVGHFGVYTRVSQYIEWLQKLMRSEPRPGVLLRAPFPSSSSKAPPPSLPSPSRLPGPSDTPILPQSSSSKAPPPSLPSPSRLPGPSDTPILPQSSSSKAPPPSLPSPSRLPGPSDTPILPQ
modifications: here or on the partner: CTP units may be O-glycosylated (sites not given); gamma-carboxyglutamic acid (Gla) residues in the N-terminal region (positions not given)

From US20180360932A1 (OPKO BIOLOGICS, published 2018)
